According to article PMC2909917, “Dynamic Subunit Exchange and the Regulation of Microtubule Assembly by the Stress Response Protein Human αB Crystallin” (PLoS ONE, 2010):

Molecular target: the molecule itself
Experiment: SEC; 128 µM αB crystallin alone in 20 mM tris-HCl, 160 µM MgCl2, 40 µM EGTA, pH 8.0; Biosep SEC-S4000, eluted in 20 mM tris-Cl pH 8.0 at 4°C; size from calibration proteins (apparent); subunits to polydisperse complex

B1: human αB crystallin (natural protein, UniProt P02511 1-175, looked up)
chain: MDIAIHHPWIRRPFFPFHSPSRLFDQFFGEHLLESDLFPTSTSLSPFYLRPPSFLRAPSWFDTGLSEMRLEKDRFSVNLDVKHFSPEELKVKVLGDVIEVHGKHEERQDEHGFISREFHRKYRIPADVDPLTITSSLSSDGVLTVNGPRKQVSGPERTIPITREEKPAVTAAPKK
notes: human αB crystallin, expressed from a human αB crystallin pET16b plasmid; 20 kDa on SDS-PAGE; Polydisperse complex; pET16b can add an N-terminal His tag, but purification was by anion exchange and SEC, so the protein is probably untagged (surmise); also called small heat shock protein (sHSP); source: E. coli BL21 (DE3), purified (Q Sepharose Fast Flow, Superdex 200); copies: 24
  stoichiometry N: 24 subunits
